From US7919091B2, “Lipolysis stimulated receptor (LSR) specific antibodies” (Serono Genetics Institute S.A., priority 1997, dated 2011)

T1: LSR (Rattus norvegicus, UniProt Q9WU74)
T1 construct: from tissue; host or cells: rat liver plasma membranes / solubilized rat liver membrane proteins
T1 sequence (Q9WU74 36-593): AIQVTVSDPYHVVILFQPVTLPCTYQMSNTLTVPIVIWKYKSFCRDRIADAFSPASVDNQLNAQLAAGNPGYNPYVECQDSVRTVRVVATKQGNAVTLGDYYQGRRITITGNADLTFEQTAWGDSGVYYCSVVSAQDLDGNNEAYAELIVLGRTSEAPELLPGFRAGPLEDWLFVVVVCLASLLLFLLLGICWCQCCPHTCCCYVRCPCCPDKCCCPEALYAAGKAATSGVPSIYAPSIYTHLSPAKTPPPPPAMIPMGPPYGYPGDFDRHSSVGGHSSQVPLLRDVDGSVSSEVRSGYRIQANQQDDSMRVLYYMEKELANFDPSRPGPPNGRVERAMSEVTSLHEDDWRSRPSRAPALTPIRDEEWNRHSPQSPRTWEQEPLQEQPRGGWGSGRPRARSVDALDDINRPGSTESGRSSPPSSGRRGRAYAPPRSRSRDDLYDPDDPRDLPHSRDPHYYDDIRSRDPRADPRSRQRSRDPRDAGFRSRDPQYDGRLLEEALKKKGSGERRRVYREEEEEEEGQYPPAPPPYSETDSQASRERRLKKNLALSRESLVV
T1 sequence (Q9WU74 36-525 isoform Q9WU74-3 limits assumed): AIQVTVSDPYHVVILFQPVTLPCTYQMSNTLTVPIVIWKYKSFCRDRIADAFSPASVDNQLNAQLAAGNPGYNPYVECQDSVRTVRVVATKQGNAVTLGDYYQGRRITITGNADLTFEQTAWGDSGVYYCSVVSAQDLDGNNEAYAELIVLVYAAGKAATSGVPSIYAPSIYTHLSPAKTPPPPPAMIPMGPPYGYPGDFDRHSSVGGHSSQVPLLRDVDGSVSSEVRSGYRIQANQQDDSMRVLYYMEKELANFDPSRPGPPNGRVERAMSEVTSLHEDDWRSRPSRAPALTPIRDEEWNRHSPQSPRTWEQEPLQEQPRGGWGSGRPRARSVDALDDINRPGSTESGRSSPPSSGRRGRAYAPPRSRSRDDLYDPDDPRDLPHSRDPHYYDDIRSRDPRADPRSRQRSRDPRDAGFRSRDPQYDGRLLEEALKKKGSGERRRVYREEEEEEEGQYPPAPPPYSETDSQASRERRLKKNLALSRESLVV


Key:
[1] = Food intake in ob/ob and db/db mice under AdipoQ; assay type: in vivo; conditions: ob/ob and db/db obese mice, 100 μg daily for 5 days
Method: Recombinant AdipoQ protein (100 μg) or PBS alone were injected daily for 5 days through the caudal vein of ob/ob or db/db mice kept in a metabolic cage. The mice are weighed each day and the quantity of food consumed was also measured. The results correspond to a mean food intake and a standard deviation for 4 mice in each group.

[2] = Postprandial lipemic response in rats after AdipoQ injection; assay type: in vivo, rat; conditions: high-fat meal, 1 mg AdipoQ i.v.
Method: Male Sprague-Dawley rats (400-450 g), starved since the day before, were force-fed with a meal which was very high in fat (t=0) (60% fatty acid of which 37% saturated, 27% monounsaturated and 36% polyunsaturated, 20% protein and 20% carbohydrate, the total providing 56 kcal/kg of body weight) and received immediately afterwards an intravenous injection (femoral vein) of either 300 μl of PBS alone or of the same volume containing 1 mg of mouse recombinant AdipoQ protein. Blood samples were collected at various times (0, 2, 4 and 6 h). The quantity of plasma triglycerides was measured using an enzymatic kit. The results are presented as mean values and standard deviations on 3 animals.

[3] = Change in weight and plasma triglycerides in rats under AdipoQ infusion; assay type: in vivo, rat; conditions: 3-day ip infusion
Method: Osmotic pumps were surgically inserted into the abdominal cavities of 12 Sprague-Dawley male rats of 400-450 g. The osmotic pumps contained either 2 ml of PBS (phosphate buffered saline), pH 7.4 (control 6 rats), or 2 ml of recombinant AdipoQ protein (5 mg/ml PBS, 6 rats). These pumps were designed to deliver 10 μl/h (50 μg AdipoQ/h). The animals are weighed and individually housed in metabolic cages. 3 animals in each group are subjected ad libitum either to a normal diet or to a fatty diet (day 0). The fatty diet consists of a normal diet supplemented with 2% (w/w) cholesterol, 10% (w/w) saturated fatty acid in the form of vegetaline, [lacuna] % (w/w) sunflower oil and 15% (w/w) sucrose. On day 3, the animals are weighed and blood samples are obtained from the caudal vein. The quantity of plasma triglycerides was measured using an enzymatic kit.

LSR = target: T1, LSR; experiment: Effect of AdipoQ on LSR activity in primary culture of rat hepatocytes; assay type: cell-based; conditions: 25 ng/ml AdipoQ, in the presence of oleate
Method: Primary cultures of rat hepatocytes were prepared and distributed into 6-well plates (9000,000 cells/well). After 48 h, the cells were washed once with PBS (2 ml/well) and incubated for 30 min at 37° C. with 20 ng/ml of recombinant murine leptin. The cells were then incubated for 4 h at 37° C. with increasing concentrations of recombinant murine AdipoQ proteins and 20 μg/ml ^125I-LDL in the presence or in the absence of 0.5 mM oleate. The binding, internalization and degradation of lipoproteins were measured as indicated in Example 1.

[4] = Postprandial lipemic response in mice after a high-fat meal; assay type: in vivo; conditions: ob/ob mice, 2.5 mg lactoferrin with 0.5 μg leptin i.v.
Method: Control, ob/ob and db/db mice, starved since the day before, are force-fed with a meal which is very high in fat [60% fat (37% saturated, 27% monounsaturated and 36% polyunsaturated fatty acids), 20% protein and 20% carbohydrate] providing 56 kcal of energy/kg of the weight of the animal. Immediately after the meal (time=0 hour), the mice are injected intravenously with 200 μl of physiological saline solution. At various times, 20 μl of blood are collected via the caudal vein in tubes containing 90 μg of disodium EDTA, and after separating the plasma by centrifugation, the plasma concentration of triglyceridemia is determined with the aid of an enzymatic assay kit. Each point on the curves presented corresponds to the mean with standard deviation obtained for 3 measurements per animal and for 3 different animals.
The procedure is the same as above, except that immediately after the meal (time=0 hour), the mice are injected intravenously with either 200 μl of physiological saline solution, or 200 μl of the same solution containing 50 μg of murine recombinant leptin.
ob/ob mice, starved since the day before, are force-fed with a meal identical to that described above. […] Blood is collected between 2 and 3 hours after the meal and the plasma concentration of triglycerides (TG) is measured. […]

LSR activity (LSR)	Molecule	food intake [1]	postprandial lipemic response [2]	level of plasma triglycerides [3]	weight ([3]; normal or fatty diet)	reduction in the lipemic response induced by leptin [4]
increases	AdipoQ: mouse recombinant AdipoQ protein with hexahistidine peptide, expressed in E. coli; homologue of complement C1q (protein, left off: small tags and cut ends, mouse recombinant AdipoQ protein with hexahistidine peptide, expressed in E. coli; homologue of complement C1q) SHAEDDVTTTEELAPALVPPPKGTCAGWMAGIPGHPGHNGTPGRDGRDGTPGEKGEKGDAGLLGPKGETGDVGMTGAEGPRGFPGTPGRKGEPGEAAYVYRSAFSVGLETRVTVPNVPIRFTKIFYNQQNHYDGSTGKFYCNIPGLYYFSYHITVYMKDVKVSLFKKDKAVLFTYDQYQEKNVDQASGSVLLHLEVGDQVWLQVYGDGDHNGLYADNVNDSTFTGFLLYHDTN	reduces	massively reduce	reduced	loss in weight	
	lactoferrin: human lactoferrin (Serva), blocks the activity of LSR (protein, UniProt P02788 20-710, looked up) Lactotransferrin: GRRRSVQWCAVSQPEATKCFQWQRNMRKVRGPPVSCIKRDSPIQCIQAIAENRADAVTLDGGFIYEAGLAPYKLRPVAAEVYGTERQPRTHYYAVAVVKKGGSFQLNELQGLKSCHTGLRRTAGWNVPIGTLRPFLNWTGPPEPIEAAVARFFSASCVPGADKGQFPNLCRLCAGTGENKCAFSSQEPYFSYSGAFKCLRDGAGDVAFIRESTVFEDLSDEAERDEYELLCPDNTRKPVDKFKDCHLARVPSHAVVARSVNGKEDAIWNLLRQAQEKFGKDKSPKFQLFGSPSGQKDLLFKDSAIGFSRVPPRIDSGLYLGSGYFTAIQNLRKSEEEVAARRARVVWCAVGEQELRKCNQWSGLSEGSVTCSSASTTEDCIALVLKGEADAMSLDGGYVYTAGKCGLVPVLAENYKSQQSSDPDPNCVDRPVEGYLAVAVVRRSDTSLTWNSVKGKKSCHTAVDRTAGWNIPMGLLFNQTGSCKFDEYFSQSCAPGSDPRSNLCALCIGDEQGENKCVPNSNERYYGYTGAFRCLAENAGDVAFVKDVTVLQNTDGNNNEAWAKDLKLADFALLCLDGKRKPVTEARSCHLAMAPNHAVVSRMDKVERLKQVLLHQQAKFGRNGSDCPDKFCLFQSETKNLLFNDNTECLARLHGKTTYEKYLGPQYVAGITNLKKCSTSPLLEACEFLRK					suppressed
